This is an account of results in patent publication US20260176358A1 (JIANGSU HENGRUI PHARMACEUTICALS, published 2026).

For assay [1], the target named is hPDL1 (human, UniProt Q9NZQ7 19-238). Put plainly: ELISA of Test Example 4 of WO2021139758. For orientation: In an ELISA, binding on a coated surface is turned into a signal by an enzyme label.
The target in assay [2] is hCTLA4 (human, UniProt P16410 36-161). Put plainly: ELISA of Test Example 4 of WO2021139758.
Assay [3] addresses hIL5 (human, UniProt P05113 20-134). Put plainly: method of Test Example 4 of WO2021139758.
Assay [4] has as its target hTSLP (human, UniProt Q969D9 29-159). Put plainly: method of Test Example 4 of WO2021139758.
Assay [5] deals with T1, human CGRP (human, UniProt P06881 83-119).
T1 peptide (looked up): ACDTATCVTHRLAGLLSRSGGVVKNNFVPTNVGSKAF
Description: ELISA, coated CGRP. On the procedure:
(§1) In this test example, the abilities of the chimeric antibodies and humanized antibodies of C1 #, C9 #, C21 #, and C28 #to bind to human CGRP and rat CGRP were assessed using ELISAs. Plates were coated with […] human CGRP and rat CGRP, respectively, and blocked, and the antibodies, serially diluted, were then added. The plates were incubated for 1 h and washed, and a horseradish peroxidase-labeled anti-human Fc secondary antibody was then added. After incubation, color development was performed. […] The plates were incubated for 1 h and washed, and the antibodies, serially diluted, were then added. The plates were incubated for 1 h and washed, and a horseradish peroxidase-labeled streptavidin secondary antibody was then added. After incubation, color development was performed.

Assay [6] addresses T2, rat CGRP (rat, UniProt P01256 83-119).
T2 peptide (looked up): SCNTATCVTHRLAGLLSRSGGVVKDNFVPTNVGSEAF
Put plainly: ELISA, coated CGRP. On the procedure: as §1

Assay [7] deals with CGRP. Put plainly: cell-based or functional assay.

Sequence of hCTLA4 (P16410 36-161 limits assumed): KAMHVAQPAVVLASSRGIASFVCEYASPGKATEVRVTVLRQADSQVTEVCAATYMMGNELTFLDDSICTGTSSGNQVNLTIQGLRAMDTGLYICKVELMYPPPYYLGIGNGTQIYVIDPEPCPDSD
Sequence of hPDL1 (Q9NZQ7 19-238 limits assumed): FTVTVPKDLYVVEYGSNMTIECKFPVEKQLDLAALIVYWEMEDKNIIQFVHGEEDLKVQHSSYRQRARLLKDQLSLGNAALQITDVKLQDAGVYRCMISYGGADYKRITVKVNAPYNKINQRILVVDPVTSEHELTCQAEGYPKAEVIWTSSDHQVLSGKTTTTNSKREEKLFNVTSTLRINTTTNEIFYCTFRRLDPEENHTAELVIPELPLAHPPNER

B1: PL-13 (bispecific antibody)
chain 1: not shown
chain 2: DIVLTQSPASLAVSPGQRATITCRASESVSIHGTHLMHWYQQKPGQPPKLLIYAASKLESGVPARFSGSGSGTDFTLTINPVEAEDTANYYCQQSFEDPLTFGQGTKLEIKRTVASGIPPKIECLPIDISIDEGKVLTVASCFTGEPTPEVTWSTGGRKIHSQEQGRFHIENTDDSTTLTIKDVQKQDGGLYTLTLRNEFGSDSATVNIHIRSI
chain 3: not shown
chain 4: not shown
Turning to B1, the EC50 in assay [1] amounted to 0.5 nM; in assay [2] it was 4.4 nM.

B2: PL-15 (bispecific antibody)
chain 1: not shown
chain 2: DIVLTQSPASLAVSPGQRATITCRASESVSIHGTHLMHWYQQKPGQPPKLLIYAASKLESGVPARFSGSGSGTDFTLTINPVEAEDTANYYCQQSFEDPLTFGQGTKLEIKRTVASGIPPKIECLPIDISIDEGKCLTVASAFTGEPTPEVTWSTGGRKIHSQEQGRFHIENTDDSTTLTIKDVQKQDGGLYTLTLRNEFGSDSATVNIHIRSI
chain 3: not shown
chain 4: not shown
As for B2, the EC50 was determined as 1.4 nM in assay [1] and 3.2 nM in assay [2].

B3: PL-14 (bispecific antibody)
chain 1: not shown
chain 2: DIVLTQSPASLAVSPGQRATITCRASESVSIHGTHLMHWYQQKPGQPPKLLIYAASKLESGVPARFSGSGSGTDFTLTINPVEAEDTANYYCQQSFEDPLTFGQGTKLEIKRTVASGIPPKIECLPIDISIDEGKVLTVASAFTGEPTPEVTWSTGGRKIHSQEQGRFHIENTDDSTTLTIKDVQKQDGGLYTLTLRNEFGSDSATVNIHIRSI
chain 3: not shown
chain 4: not shown
For the molecule B3, the EC50 in assay [1] came to 1.3 nM; in assay [2], 6 nM.

B4: PL-19 (bispecific antibody)
chain 1: not shown
chain 2: DIVLTQSPASLAVSPGQRATITCRASESVSIHGTHLMHWYQQKPGQPPKLLIYAASKLESGVPARFSGSGSGTDFTLTINPVEAEDTANYYCQQSFEDPLTFGQGTKLEIKRTVASGIPPKIECLPIDISIDEGKVLTVASCFTGEPTPEVTWSTGGRKIHSQEQGRFHIENTDDSTTLTIKDVQKQDGGLYTLTLRNEFGSDSATVNIHIRSI
chain 3: not shown
chain 4: not shown
Consider B4, for which the results for the EC50 in assay [1] and in assay [2] were 1.6 nM and 6.5 nM, respectively.

B5: PL-17 (bispecific antibody)
chain 1: not shown
chain 2: DIVLTQSPASLAVSPGQRATITCRASESVSIHGTHLMHWYQQKPGQPPKLLIYAASKLESGVPARFSGSGSGTDFTLTINPVEAEDTANYYCQQSFEDPLTFGQGTKLEIKRTVASGIPPKIECLPIDISIDEGKVLTVASAFTGEPTPEVTWSTGGRKIHSQEQGRFHIENTDDSTTLTIKDVQKQDGGLYTLTLRNEFGSDSATVNIHIRSI
chain 3: not shown
chain 4: not shown
As for B5, the concentration giving a half-maximal response (EC50) worked out at 1.4 nM in assay [1] and 6.2 nM in assay [2].

B6: PL-18 (bispecific antibody)
chain 1: not shown
chain 2: DIVLTQSPASLAVSPGQRATITCRASESVSIHGTHLMHWYQQKPGQPPKLLIYAASKLESGVPARFSGSGSGTDFTLTINPVEAEDTANYYCQQSFEDPLTFGQGTKLEIKRTVASGIPPKIECLPIDISIDEGKCLTVASAFTGEPTPEVTWSTGGRKIHSQEQGRFHIENTDDSTTLTIKDVQKQDGGLYTLTLRNEFGSDSATVNIHIRSI
chain 3: not shown
chain 4: not shown
With B6, the EC50 in assay [1] stood at 1.6 nM; in assay [2], 6.7 nM.

B7: HJ-3 (bispecific antibody)
chain 1: not shown
chain 2: DIQMTQSPSSVSASVGDRVTITCRASQDIANYLSWYQQKPGKSPKLLIYGTSNLEVGVPSRFSGSRSGTDFTLTISSLQPEDFATYYCLQDKEFPRTFGGGTKVEIKGGGGSSGAPRFLTRPLAFVVSVGKDATLSSQIVGNPTPQVSWEKDKQPVTAGARFRLAQDGDLYRLKILDLQLSDSGQYVSRARNAIGEAFACLGLQVDAEA
chain 3: EVQLVQSGAEVKKPGSSVKVSCKASGYTFSNYLIEWVRQAPGQGLEWIGVIDPGVGDTNYNENFKGRATLTADKSTSTAYIELSSLRSEDTAVYYCAREDNTGTAFDYWGQGTTVTVSSASTKGPSVFPLAPSSKSTSGGTAALGCLVKDYFPEPVTVSWNSGALTSGVHTFPAVLQSSGLYSLSSVVTVPSSSLGTQTYICNVNHKPSNTKVDKKVEPKSCDKTHTCPPCPAPEAAGGPSVFLFPPKPKDTLMISRTPEVTCVVVDVSHEDPEVKFNWYVDGVEVHNAKTKPREEQYNSTYRVVSVLTVLHQDWLNGKEYKCKVSNKALPAPIEKTISKAKGQPREPQVCTLPPSREEMTKNQVSLSCAVKGFYPSDIAVEWESNGQPENNYKTTPPVLDSDGSFFLVSKLTVDKSRWQQGNVFSCSVMHEALHNHYTQKSLSLSPGKDYKDDDDK
chain 4: SIVMTQTPLSLSVTPGQPASISCKASQSVSSDVTWYLQKPGQSPQLLIYYVSEHYTGVPDRFSGSGYGTDFTLKISRVEAEDVGVYYCQQHHRFPLTFGQGTKLEIKRTVAAPSVFIFPPSDEQLKSGTASVVCLLNNFYPREAKVQWKVDNALQSGNSQESVTEQDSKDSTYSLSSTLTLSKADYEKHKVYACEVTHQGLSSPVTKSFNRGEC
Take B7: the EC50 in assay [3] came to 17.4 nM; in assay [4], 3.23 nM.

B8: C9#-CHI (antibody, human IgG1, kappa, V domains shown)
VH: EVQLQQSGPVLVKPGASVKMSCKASGYTFTDYYMNWVKQSLGKSLEWIGVINPYNGRTTYNRKFKGKATLTVDKSSSTAYMELNSLTSEDSAVYYCASLLIRPHYFDYWGQGTTLTVSS
VL: DIVMTQSQKFMATSVGDRVSVTCKASQNVGTNVAWYQQKPGQSPKALIYSASYRYSVVPDRFTGSGSGTDFTLTIRNVQSEDLAEYHCQQYNFYPYTFGAGTKLELKR
notes: chimeric: murine variable regions fused to human constant regions; also called C9#-CH1
Regarding B8, the EC50 was found to be 1.58 nM in assay [5] and 3.11 nM in assay [6]. Besides, in assay [7], the “IC50, inhibition of cAMP production in SK-N-MC cells” value (from here on “IC50, inhibition of cAMP production”) is 21 nM.

B9: C28#-CHI (antibody, human IgG1, kappa, V domains shown)
VH: EVQLQQSGPELVKPGASVKISCEASGYTFTDYYMNWVKQSHGKSLEWIGDINPNNGVTTYNQKFKGKATLTVDKSSSTAYMELRSLTSEDSAVYYCASIIIVPDYFDYWGQGTTLTVSS
VL: DIVMTHSQKFMSTSVGDRVSVTCKASQNVGSNVAWYQEKPGQSPKALIYSASYRYSGVPDRFTGSGSGTDFTLTISNVQSEDLAEYFCQQYNSYPYTFGGGTKLEIKR
notes: chimeric: murine variable regions fused to human constant regions; also called C28#-CH1
For the molecule B9, the results for the EC50 in assay [5] and in assay [6] were 1.29 nM and 7.4 nM, respectively. The “IC50, inhibition of cAMP production” value in assay [7] is 1.21 nM.

B10: C21#-CHI (antibody, human IgG1, kappa, V domains shown)
VH: EVQLQQSGPELVKPGASVRISCKASGYTFTDYYMNWVRQSHRKSLEWIGDINPNNGGTNYNQKFKGKATLTVDKSSSTAYMELRSLTSEDSAVYYCASIIIVPNYFDYWGQGTTLTVSS
VL: DIVMTQSQKFMSTSVGDRVSVTCKASQNVDTNVAWFQQRPGQSPKALIYSASYRYSGVPDRFTGSGSGTDFTLTISNVQSEDLADYFCQQYNNYPYTFGGGTKLEIER
notes: chimeric: murine variable regions fused to human constant regions; also called C21#-CH1
As to B10, the EC50 amounted to 3.79 nM in assay [5] and 10.1 nM in assay [6]. Also, the “IC50, inhibition of cAMP production” value in assay [7] was determined as 1.28 nM.

B11: C1#-CHI (antibody, human IgG1, kappa, V domains shown)
VH: QVQLQQSGAELVRPGSSVKISCKASGYTFSTSWMNWVKQRPGQGLEWIGQIYPGDGYTNYNGKFRGKATLTADKSSSTAYMQLSSLTSEDSAVYFCAGDYEALWGQGTTLTVSS
VL: DVVMTQTPLSLPVSLGDQASISCRSSQSLVHSNGNTYFHWYLQRPGQSPKLLIYEVSNRFSGVPDRFSGSGSGTDFTLKISRVEAEDLGVYFCSQSTHVPFTFGSGTKLEIKR
notes: chimeric: murine variable regions fused to human constant regions; also called C1#-CH1
In the case of B11, the EC50 in assay [5] stood at 1.36 nM; in assay [6], 1.81 nM. In addition, the “IC50, inhibition of cAMP production” value in assay [7] was found to be 7.96 nM.

B12: C1H3L1 (antibody, human IgG1, kappa, V domains shown)
VH: EVQLVQSGAEVKKPGSSVKVSCKASGYTFSTSWMNWVRQAPGQGLEWMGQIYPGDGYTNYNVKFRGRVTITADKSTSTAYMELSSLRSEDTAVYYCAGDYEALWGQGTTVTVSS
VL: DIVMTQTPLSLPVTPGEPASISCRSSQSLVHSNGNTYFHWYLQKPGQSPQLLIYEVSNRFSGVPDRFSGSGSGTDFTLKISRVEAEDVGVYYCSQSTHVPFTFGQGTKLEIKR
Consider B12, for which the EC50 in assay [5] turned out to be 1.89 nM; in assay [6], 1.95 nM. In assay [7], the “IC50, inhibition of cAMP production” value amounted to 9.77 nM.

B13: C28H2L1 (antibody, human IgG1, kappa, V domains shown)
VH: EVQLVQSGAEVKKPGASVKVSCKASGYTFTDYYMNWVRQAPGQRLEWIGDINPNNVVTTYNQKFKGRATLTVDKSASTAYMELSSLRSEDTAVYYCASIIIVPDYFDYWGQGTTVTVSS
VL: DIQMTQSPSSVSASVGDRVTITCKASQNVGSNVAWYQQKPGKSPKALIYSASYRYSGVPSRFSGSGSGTDFTLTISSLQPEDFATYYCQQYNSYPYTFGGGTKVEIKR
With B13, the EC50 in assay [5] came to 1.33 nM; in assay [6], 4.04 nM. The “IC50, inhibition of cAMP production” value in assay [7] was found to be 2.55 nM.

B14: C9H8L1 (antibody, human IgG1, kappa, V domains shown)
VH: EVQLVQSGAEVKKPGASVKVSCKASGYTFTDYYMNWVRQAPGQRLEWIGVINPYTGRTTYNRKFKGRATLTVDKSASTAYMELSSLRSEDTAVYYCASLLIRPHYFDYWGQGTTVTVSS
VL: DIQMTQSPSSLSASVGDRVTITCKASQNVGTNVAWYQQKPGKSPKALIYSASYRYSGVPSRFSGSGSGTDFTLTISSLQPEDVATYHCQQYNFYPYTFGQGTKLEIKR
For the molecule B14, the EC50 in assay [5] was 1.03 nM; in assay [6], 2.8 nM. The “IC50, inhibition of cAMP production” value in assay [7] stood at 12.2 nM.

As a reminder, the EC50 is the concentration that produces a half-maximal response. Higher therefore signals a need for much substance.
